This note sets out measurements from US20260274985A1 (MYTHIC THERAPEUTICS, published 2026).

The target in assay [1] is T1, TROP2 on TROP2-positive NCI-H1975 cells (human, UniProt P09758 27-323).
T1 sequence: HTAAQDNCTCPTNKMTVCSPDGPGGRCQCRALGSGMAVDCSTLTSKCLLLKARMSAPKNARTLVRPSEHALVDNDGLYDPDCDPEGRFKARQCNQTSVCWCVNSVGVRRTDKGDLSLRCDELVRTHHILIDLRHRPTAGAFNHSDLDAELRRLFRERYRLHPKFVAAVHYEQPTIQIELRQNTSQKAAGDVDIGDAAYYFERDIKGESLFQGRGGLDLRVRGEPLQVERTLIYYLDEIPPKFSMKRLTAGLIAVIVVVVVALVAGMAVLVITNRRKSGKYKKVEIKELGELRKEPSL
As to the kind of experiment: cell-based or functional assay.

Assay [2] deals with T2, Human TROP2 Protein, His Tag (Acro Biosystems) (human, UniProt P09758 27-274).
T2 construct: not shown: His tag
T2 sequence (looked up): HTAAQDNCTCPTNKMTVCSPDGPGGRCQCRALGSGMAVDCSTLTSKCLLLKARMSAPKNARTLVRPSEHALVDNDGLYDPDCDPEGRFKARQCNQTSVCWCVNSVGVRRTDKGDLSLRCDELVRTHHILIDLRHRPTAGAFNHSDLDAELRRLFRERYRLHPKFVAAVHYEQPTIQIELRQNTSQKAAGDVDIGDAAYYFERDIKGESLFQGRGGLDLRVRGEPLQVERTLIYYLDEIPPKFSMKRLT
As to the kind of experiment: BLI (Octet). For orientation: Biolayer interferometry detects binding as a change in optical thickness at a sensor tip.

B1: 166-DXd (antibody, IgG1, V domains shown)
VH: QVQLQQSGSELKKPGASVKVSCKASGYTFTNYGMNWVKQAPGQGLKWMGWINTYTGEPTYTHDFKGRFAFSLDTSVSTAYLQISSLKADDTAVYFCARGGFGSSYWYFDVWGQGSLVTVSS
VL: DIQLTQSPSSLSASVGDRVSITCKASQDVHIAVAWYQQKPGKAPKLLIYSHSYRYTGVPDRFSGSGSGTDFTLTISSLQPEDFAVYYCQQHYHTPLTFGAGTKVEIK
modifications: maleimide based GGFG-DXd conjugated to hinge cysteines, average DAR of about 4
On to B1, for which the “% efficiency @ 100 nM ADC (cytotoxicity in NCI-H1975 cells)” value (“% efficiency @ 100 nM ADC” below) in assay [1] turned out to be 9.57%.

B2: 165-DXd (antibody, IgG1, V domains shown)
VH: QVQLQQSGSELKKPGASVKVSCKASGYTFTNYGMNWVKQAPGQGLKWMGWINTYTGEPTYTDDFKGRFAFSLDTSVSTAYLQISSLKADDTAVYFCARGGFGSSYWYFDVWGQGSLVTVSS
VL: DIQLTQSPSSLSASVGDRVSITCKASQDVSIAVAWYQQKPGKAPKLLIYSASYRYTGVPDRFSGSGSGTDFTLTISSLQPEDFAVYYCQQHYITPLTFGAGTKVEIK
modifications: maleimide based GGFG-DXd conjugated to hinge cysteines, average DAR of about 4
For the molecule B2, the “% efficiency @ 100 nM ADC” value in assay [1] was determined as 1.47%.

B3: MYT12398 (antibody, V domains shown)
VH: QVQLVQSGAEVKKPGASVKVSCKASGYTFTTAGMQWVRQAPGQGLEWMGWINTHSGVPKYAEDFKGRVTISADTSTSTAYLQLSSLKSEDTAVYYCARSGFGSSYWYFDVWGQGTLVTVSS
VL: DIQMTQSPSSLSASVGDRVTITCKASQHVSTAVAWYQQKPGKAPKLLIYSHHYRYTGVPSRFSGSGSGTDFTLTISSLQPEDFAVYYCQQHYITPLTFGQGTKLEIK
notes: datopotamab VL 28, 51, 52 substituted
B3: the binding result in assay [2] is given as “binds”.

B4: 167-DXd (antibody, IgG1, V domains shown)
VH: QVQLQQSGSELKKPGASVKVSCKASGYTFTNYGMNWVKQAPGQGLKWMGWINTYTGEPTYTDHFKGRFAFSLDTSVSTAYLQISSLKADDTAVYFCARGGFGSSYWYFDVWGQGSLVTVSS
VL: DIQLTQSPSSLSASVGDRVSITCKASQDVHIAHAWYQQKPGKAPKLLIYSASYRYTGVPDRFSGSGSGTDFTLTISSLQPEDFAVYYCQQHYITPLTFGAGTKVEIK
modifications: maleimide based GGFG-DXd conjugated to hinge cysteines, average DAR of about 4
For B4, the “% efficiency @ 100 nM ADC” value in assay [1] is 4.86%.

B5: 168-DXd (antibody, IgG1, V domains shown)
VH: QVQLQQSGSELKKPGASVKVSCKASGYTFTNYGMNWVKQAPGQGLKWMGWINTYTGEPTYTDDHKGRFAFSLDTSVSTAYLQISSLKADDTAVYFCARGGFGSSYWYFDVWGQGSLVTVSS
VL: DIQLTQSPSSLSASVGDRVSITCKASQDVHIAVAWYQQKPGKAPKLLIYSHSYRYTGVPDRFSGSGSGTDFTLTISSLQPEDFAVYYCQQHYHTPLTFGAGTKVEIK
modifications: maleimide based GGFG-DXd conjugated to hinge cysteines, average DAR of about 4
Take B5: in assay [1], the “% efficiency @ 100 nM ADC” value was 7.32%.

B6: MYT12393 (antibody, V domains shown)
VH: QVQLVQSGAEVKKPGASVKVSCKASGYTFTTAGMQWVRQAPGQGLEWMGWINTHSGVPKYAEDFKGRVTISADTSTSTAYLQLSSLKSEDTAVYYCARSGFGSSYWYFDVWGQGTLVTVSS
VL: DIQMTQSPSSLSASVGDRVTITCKASQDVSTAVAWYQQKPGKAPKLLIYSHSYRYTGVPSRFSGSGSGTDFTLTISSLQPEDFAVYYCHQHYITPLTFGQGTKLEIK
notes: datopotamab VL 51, 89 substituted
B6: in assay [2], the binding result is listed as “binds”.

B7: MYT12404 (antibody, V domains shown)
VH: QVQLVQSGAEVKKPGASVKVSCKASGYTFTTAGMQWVRQAPGQGLEWMGWINTHSGVPKYAEDFKGRVTISADTSTSTAYLQLSSLKSEDTAVYYCARSGFGSSYWYFDVWGQGTLVTVSS
VL: DIQMTQSPSSLSASVGDRVTITCKASQDVSTAVAWYQQKPGKAPKLLIYSHHYRYTGVPSRFSGSGSGTDFTLTISSLQPEDFAVYYCHQHYITPLTFGQGTKLEIK
notes: datopotamab VL 51, 52, 89 substituted
For the molecule B7, the binding result in assay [2] is given as “binds”.

B8: MYT12392 (antibody, V domains shown)
VH: QVQLVQSGAEVKKPGASVKVSCKASGYTFTTAGMQWVRQAPGQGLEWMGWINTHSGVPKYAEDFKGRVTISADTSTSTAYLQLSSLKSEDTAVYYCARSGFGSSYWYFDVWGQGTLVTVSS
VL: DIQMTQSPSSLSASVGDRVTITCKASQDVSTAVAWYQQKPGKAPKLLIYSHHYRYTGVPSRFSGSGSGTDFTLTISSLQPEDFAVYYCQQHYITPLTFGQGTKLEIK
notes: datopotamab VL 51, 52 substituted
B8: in assay [2], the binding result is given as “binds”.
